Assays:
[1] = target: Biotinated IL-4R-ECD-hFc (human) (UniProt P24394); assay: blocking ELISA: coated IL-4-hFc (2000 ng/ml), biotinylated IL-4R-ECD-hFc (100 ng/ml) with antibody in dilution series, Streptavidin-HRP
IL-4R-ECD-FLAG (human) [2] = target: IL-4R-ECD-FLAG (human) (UniProt P24394); assay: ELISA on coated IL-4R-ECD-FLAG (100 ng/ml), HRP goat anti-human secondary
IL-4R-ECD-FLAG (human) [3] = target: IL-4R-ECD-FLAG (human) (UniProt P24394); assay: SPR, Biacore T200; antibody captured on Protein A/G CM5 chip, IL-4R-ECD-FLAG injected

IC50 [1]: 0.138 µg/mL
EC50 (IL-4R-ECD-FLAG (human) [2]): 0.0125 µg/mL
Kd (IL-4R-ECD-FLAG (human) [3]): 0.671 nM
koff (IL-4R-ECD-FLAG (human) [3]): 3.95e-05 s⁻¹
kon (IL-4R-ECD-FLAG (human) [3]): 58800 M⁻¹ s⁻¹
B1: Dupilumab (antibody, INN chains, looked up, V domains shown)
VH: EVQLVESGGGLEQPGGSLRLSCAGSGFTFRDYAMTWVRQAPGKGLEWVSSISGSGGNTYYADSVKGRFTISRDNSKNTLYLQMNSLRAEDTAVYYCAKDRLSITIRPRYYGLDVWGQGTTVTVSS
VL: DIVMTQSPLSLPVTPGEPASISCRSSQSLLYSIGYNYLDWYLQKSGQSPQLLIYLGSNRASGVPDRFSGSGSGTDFTLKISRVEAEDVGFYYCMQALQTPYTFGQGTKLEIKR

Reference: patent publication US20210206861A1
